Assay results: US20240238419A1

Molecular target: TRAF6 (human) (UniProt Q9Y4K3)
Test: cell-based or functional assay

Chain of UniProt Q9Y4K3 (Q9Y4K3 whole entry): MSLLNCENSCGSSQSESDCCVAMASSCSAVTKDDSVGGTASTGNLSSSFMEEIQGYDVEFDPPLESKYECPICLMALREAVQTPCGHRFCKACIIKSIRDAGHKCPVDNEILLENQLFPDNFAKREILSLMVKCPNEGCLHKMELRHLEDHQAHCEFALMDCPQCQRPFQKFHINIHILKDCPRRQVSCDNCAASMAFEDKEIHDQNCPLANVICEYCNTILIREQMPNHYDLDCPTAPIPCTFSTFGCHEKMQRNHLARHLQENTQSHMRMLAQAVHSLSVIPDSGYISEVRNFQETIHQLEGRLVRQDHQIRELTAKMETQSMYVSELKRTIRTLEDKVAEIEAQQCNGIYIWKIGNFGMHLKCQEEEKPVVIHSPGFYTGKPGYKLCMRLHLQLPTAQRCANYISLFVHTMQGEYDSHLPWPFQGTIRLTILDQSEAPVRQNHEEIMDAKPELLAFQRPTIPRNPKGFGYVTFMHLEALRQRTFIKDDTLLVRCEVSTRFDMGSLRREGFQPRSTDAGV

Substance	activity of MALT1 detected by biotinylated MALT1 activity-based probe (bio-MALT1-ABP) pulldown, ratio of active to total MALT1, resting Jurkat T cells
human MALT1B E795A (from UniProt Q9UDY8 2-824) (enzyme)	5 fold
human MALT1A E316A/E806A (from UniProt Q9UDY8 1-824) (enzyme)	50 fold
